According to patent publication US20140227293A1 (TRUSTEES OF BOSTON UNIVERSITY, published 2014):

Biological target: the molecule itself
Assay: BS3 chemical cross-linking of PAE cells expressing IGPR-1 (confluent versus sparse), anti-IGPR-1 Western blot
Procedure: To determine whether IGPR-1 is involved in cell-cell interaction inventors subjected PAE cells expressing IGPR-1 and ΔN-IGPR-1 to aggregation/cell-cell adhesion assay. […] To further establish role of IGPR-1 in cell-cell interaction, the inventors investigated dimerization of IGPR-1 particularly its possible trans-dimerization. Inventors reasoned that if cells are plated in confluent condition, IGPR-1 could form trans-dimerization and possibly cis-dimerization (see FIG. 9C). However, plating the cells in a sparse condition, IGPR-1 will be less able to form trans-dimerization.

B1: immunoglobulin containing and proline rich receptor-1 (IGPR-1), human, full length, ectopically expressed in PAE cells (receptor)
chain: LSVQQGPNLLQVRQGSQATLVCQVDQATAWERLRVKWTKDGAILCQPYITNGSLSLGVCGPQGRLSWQAPSHLTLQLDPVSLNHSGAYVCWAAVEIPELEEAEGNITRLFVDPDDPTQNRNRIASFPGFLFVLLGVGSMGVAAIVWGAWFWGRRSCQQRDSGNSPGNAFYSNVLYRPRGPPKKSEDCSGEGKDQRGQSIYSTSFPQPAPRQPHLASRPCPSPRPCPSPRPGHPVSMVRVSPRPSPTQQPRPKGFPKVGEE
modifications: N-glycosylated (apparent 55 kDa, 31 kDa after PNGase F)
notes: Expressed from the retroviral vector pMSCV.puro in PAE (porcine aortic endothelial) cells; Used on intact cells (aggregation, adhesion, BS3 cross-linking) and as whole cell lysate (GST pull-down, co-immunoprecipitation, Western blot); also called IGRP-1; TMIGD2
Question: Does B1 bind?
Answer: Result: binds
